Measurements from publication PMC8304084, “A Concerted Action of UBA5 C-Terminal Unstructured Regions Is Important for Transfer of Activated UFM1 to UFC1” (International Journal of Molecular Sciences, 2021).

How the values were obtained:
GABARAPL2 [1] = molecular target: T1, GABARAPL2 (Homo sapiens, UniProt P60520); test: NMR titration with GABARAPL2; assay type: binding; settings: NMR titration of 15N-labeled R1-R2-R3^325–404 with GABARAPL2, 25 °C
T1 construct: modified ubiquitin tag (Ub19) with TEV site (N, cleaved yes); made in house; host or cells: E. coli T7 Express
T1 sequence (P60520 3-116): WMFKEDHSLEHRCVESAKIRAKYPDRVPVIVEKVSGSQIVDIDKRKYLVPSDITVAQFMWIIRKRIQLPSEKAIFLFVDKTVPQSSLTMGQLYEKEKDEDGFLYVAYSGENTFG

UFM1 = molecular target: T2, UFM1 (Homo sapiens, UniProt P61960); test: ITC, UBA5 peptides vs UFM1; assay type: binding; settings: 25 °C
T2 construct: Full length UFM1, residues 2–83; modified ubiquitin tag (Ub19) with TEV site (N, cleaved yes); made in house; host or cells: E. coli T7 Express
T2 sequence (P61960 2-83): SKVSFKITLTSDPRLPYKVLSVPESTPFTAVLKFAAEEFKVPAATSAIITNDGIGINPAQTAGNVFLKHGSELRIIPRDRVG
Source text: (§1) To understand how the UBA5 C-terminus participates in the ufmylation cascade, we performed isothermal titration calorimetry (ITC) experiments, in which we titrated UBA5 C-terminal peptides (see Table 1) to the UBA5 AD, UFC1, UFM1 and representative LC3/GABARAP proteins (Figure 2A, Supplementary Figure S2A–D and Table 2).
(§2) All proteins and peptides were expressed in E.Coli T7 Express (New England Biolabs GmbH, Frankfurt, Germany) cells in LB or M9 (to obtain ^15N- and ^13C,^15N-labeled polypeptides) media according to the protocol described in [33, 36]. For protein purification, bacterial cell pellets were resuspended in lysis buffer (50 mM Tris-HCl pH = 7.5, 100 mM NaCl, 5% glycerol, 5 mM PIC (protease inhibitor cocktail)) and lysed via sonication (TT13 Sonotrode, 40% amplitude, for 6 × 1 min with a 0.5/0.5-s pulse). Lysates were centrifuged for 45 min at 17,000× g at 4 °C. Supernatants were loaded onto a His Trap Fast Flow 5 mL column (GE Healthcare, München, Germany) equilibrated in loading buffer (50 mM Tris-HCl pH = 8.0, 250 mM NaCl, 1% glycerol, 20 mM imidazole). The column was washed with loading buffer for 5–10 CV and protein was eluted with elution buffer (50 mM Tris-HCl pH = 8, 250 mM NaCl, 1% glycerol, 400 mM imidazole). Simultaneous TEV cleavage (1 mg TEV protease was added to 100 mg peptides/proteins) and buffer exchange to loading buffer via dialysis was performed over night at 4 °C. After reverse IMAC, proteins were concentrated with conical concentrators (Millipore Merck, Darmstadt, Germany) and loaded on a Superdex 10/60 75 or 200 column (GE Healthcare, München, Germany) for further purification and equilibration with ITC/NMR buffer (25 mM HEPES pH = 7.5, 100 mM NaCl). For structural NMR spectroscopy, buffer containing 50 mM Tris-HCl pH = 7.5, 100 mM NaCl was used. Prior to NMR experiments, TCEP and protease inhibitors cocktail were added to the samples to final concentrations 1 and 5 mM, respectively. Purified peptides and protein were concentrated and stored at −80 °C. The protein and peptide concentrations were calculated from the UV absorption at 280 nm by Nanodrop spectrophotometer (Thermo Scientific, Langenselbold, Germany).
(§3) All ITC experiments were performed at 25 °C using a VP-ITC microcalorimeter (Malvern Panalytical Ltd., Malvern, UK). Peptides in concentration of ~400 µM were titrated into 20–25 µM solutions of corresponding binding partner at a stirring speed of 307 rpm. The raw data were corrected on the dilution heat of peptides obtained in independent experiment (titration of the peptide in syringe into the ITC/NMR buffer in the measuring cell). Pre-titration delay was set to 180 s, interval between titration steps was experimentally adjusted to avoid kinetic contribution to the observed heat effects and set to 200 s. A single ITC profile was collected for each type of interaction. The ITC data were analyzed based on a “one-site” binding model with MicroCal ITC software implemented in Origin 7.0.

LC3A = molecular target: T3, LC3A (Homo sapiens, UniProt Q9H492); test: ITC, UBA5 peptides vs LC3A; assay type: binding; settings: 25 °C
T3 construct: LC3A, residues 4–120; ubiquitin tag Ub3 (vector pETm60_Ub3) (cleaved yes); made in house; host or cells: E. coli T7 Express
T3 sequence (Q9H492 4-120): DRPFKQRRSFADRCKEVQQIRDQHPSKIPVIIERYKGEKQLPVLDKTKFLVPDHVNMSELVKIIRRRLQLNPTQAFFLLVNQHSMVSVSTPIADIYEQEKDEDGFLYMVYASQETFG
Source text: as §1
as §2, with “For structural NMR spectroscopy, buffer containing 50 mM Tris-HCl pH = 7.5, 100 mM NaCl was used. Prior to NMR experiments, TCEP and protease inhibitors cocktail were added to the samples to final concentrations 1 and 5 mM, respectively. Purified peptides and protein were concentrated and stored at −80 °C.” left out
All ITC experiments were performed at 25 °C using a VP-ITC microcalorimeter (Malvern Panalytical Ltd., Malvern, UK). […] The ITC data were analyzed based on a “one-site” binding model with MicroCal ITC software implemented in Origin 7.0.

UFC1 = molecular target: T4, UFC1 (Homo sapiens, UniProt Q9Y3C8); test: In vitro thioester formation (ufmylation) assay, UFC1~UFM1 conjugate; assay type: biochemical; settings: 1 mM ATP, 22 °C; peptides added to UBA5 AD^1–330 where applicable
T4 construct: Full length UFC1, residues 1–167; modified ubiquitin tag (Ub19) with TEV site (N, cleaved yes); made in house; host or cells: E. coli T7 Express
T4 sequence (Q9Y3C8 1-167): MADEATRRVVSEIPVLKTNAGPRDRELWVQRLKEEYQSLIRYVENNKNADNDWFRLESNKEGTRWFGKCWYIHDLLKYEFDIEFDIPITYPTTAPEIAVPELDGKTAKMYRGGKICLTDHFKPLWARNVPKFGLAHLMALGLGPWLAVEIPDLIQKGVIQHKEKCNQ
Procedure: First, we analyzed the effect of the UBA5 C-terminus on UFM1 transfer to UFC1 with an in vitro thioester formation assay (Figure 1B–E).
Ufmylation reaction assays were adopted from work of Xie. Briefly, 70 µM UFM1, 20 µM UFC1 and 20 µM of different UBA5 constructs were mixed in reaction buffer (50 mM HEPES pH = 7.5, 100 mM NaCl, 5 mM MgCl2). After starting the reaction with addition of 1 mM ATP, the reaction mix was incubated at 22 °C for the desired time. To quench the reaction and prepare electrophoretic samples, 1 µL of the reaction mix was added to 99 µL 1x non-reducing SDS loading buffer and frozen in liquid nitrogen. Sample content was visualized by sodium dodecyl sulfate polyacrylamide gel electrophoresis (SDS-PAGE). The transfer to polyvinylidene difluoride (PVDF) membrane was performed via a Trans-Blot® Turbo™ Transfer System (Bio-Rad, München, Germany). After transfer the membrane was blocked with TBST (Tris-buffered saline with Tween20 buffer, 20 mM Tris, 150 mM NaCl and 0.1% TWEEN 20) containing 5% w/v nonfat dry milk for 1 h, followed by α-UFC1 antibody incubation over night at 4 °C (ab189251 abcam, 1:10,000 in TBST containing 5% w/v nonfat dry milk). After washing with TBST the membrane was incubated with secondary antibody (anti-rabbit-HRP) for 1 h at RT and again washed with TBST. Detection was performed by addition of ECL solution. For quantification of UFC1 ufmylation coloc2 software implemented in ImageJ was used.

GABARAPL2 [2] = molecular target: T1, GABARAPL2; test: ITC, UBA5 peptides vs GABARAPL2; assay type: binding; settings: 25 °C
Source text: as §1, §2, §3

“R1-R2-R3^325–404: UBA5 C-terminal part, residues 325–404 (recombinant, E. coli)” was tested. Which “interaction with GABARAPL2 (in words)” value (GABARAPL2 [1]) did it give?
The value was “GABARAPL2 binds first to the LIR/UFIM region, and after saturation of this binding site, GABARAPL2 interacts with additional sites within the UBA5 C-terminus”.

And the “affinity change, UFM1” value (UFM1; compared with isolated R1^325−357 peptide (ref 31))?
The value was “does not change significantly”.

And the ΔG (UFM1; vs UFM1)?
Its ΔG is -7.15 kcal/mol.

And the “−T*ΔS” value (UFM1; vs UFM1)?
Its value is -1.31 kcal/mol.

What about the ΔS (UFM1; vs UFM1, one-site model, single profile) of the same substance?
The ΔS was 4.41 cal mol^−1 K^−1.

What about the “KA*10^−6” value (UFM1; vs UFM1, value is KA × 10^−6, ± = fitting error) of the same substance?
The value was 0.17 ± 0.02 M^−1.

What about the ΔG (LC3A) of the same substance?
The ΔG was -7.38 kcal/mol.

What about the “−T*ΔS” value (LC3A) of the same substance?
The value was -3.13 kcal/mol.

What about the “KA*10^−6” value (LC3A; value is KA × 10^−6, ± = fitting error) of the same substance?
The value was 0.26 ± 0.03 M^−1.

What about the “effect on UFC1~UFM1 conjugation (in words)” value (UFC1) of the same substance?
The value was “gets rescued”.

And the ΔG (GABARAPL2 [2]; vs GABARAPL2)?
Its ΔG is -9.25 kcal/mol.

What about the ΔS (GABARAPL2 [2]; vs GABARAPL2) of the same substance?
Its ΔS is 2.04 cal mol^−1 K^−1.

And the “−T*ΔS” value (GABARAPL2 [2]; vs GABARAPL2)?
The value was -0.61 kcal/mol.

And the “KA*10^−6” value (GABARAPL2 [2]; vs GABARAPL2, value is KA × 10^−6, ± = fitting error)?
The value was 5.99 ± 0.49 M^−1.
